Assay results from publication PMC7385628, “Molecular determinants for dsDNA translocation by the transcription-repair coupling and evolvability factor Mfd”.

Key:
Mfd wild type [1] = target: T1, Mfd wild type (Escherichia coli, UniProt P30958 1-1148); test: fluorescence anisotropy; details: 10 nM labeled DNA, 2 mM nucleotide (ADP-AlFx from ADP, 10 mM NaF, 2 mM AlCl3), buffer, pH and temperature not in the material. …
[2] = test system: Mfd D7-AAA;H842A (Escherichia coli); test: fluorescence anisotropy; details: 10 nM labeled DNA, 2 mM nucleotide (ADP-AlFx from ADP, 10 mM NaF, 2 mM AlCl3), buffer, pH and temperature not in the material. …
Mfd wild type [3] = target: T1, Mfd wild type; test: cryo-EM structure (5.5 A); 2 mM ADP, 10 mM NaF, 1 mM AlCl3, Mg2+; Fluorescence anisotropy, 10 nM labeled DNA, 2 mM nucleotide (ADP-AlFx from ADP, 10 mM NaF, 2 mM AlCl3); buffer, pH and temperature not in the material. Cryo-EM: Mfd in 20 mM Tris-HCl pH 8, 100 mM NaCl, 20 mM MgCl2, 2 mM TCEP; details: protein: recombinant; tags: N-terminal His tag, cleaved with PreScission; blunt

T1 sequence (P30958 whole entry): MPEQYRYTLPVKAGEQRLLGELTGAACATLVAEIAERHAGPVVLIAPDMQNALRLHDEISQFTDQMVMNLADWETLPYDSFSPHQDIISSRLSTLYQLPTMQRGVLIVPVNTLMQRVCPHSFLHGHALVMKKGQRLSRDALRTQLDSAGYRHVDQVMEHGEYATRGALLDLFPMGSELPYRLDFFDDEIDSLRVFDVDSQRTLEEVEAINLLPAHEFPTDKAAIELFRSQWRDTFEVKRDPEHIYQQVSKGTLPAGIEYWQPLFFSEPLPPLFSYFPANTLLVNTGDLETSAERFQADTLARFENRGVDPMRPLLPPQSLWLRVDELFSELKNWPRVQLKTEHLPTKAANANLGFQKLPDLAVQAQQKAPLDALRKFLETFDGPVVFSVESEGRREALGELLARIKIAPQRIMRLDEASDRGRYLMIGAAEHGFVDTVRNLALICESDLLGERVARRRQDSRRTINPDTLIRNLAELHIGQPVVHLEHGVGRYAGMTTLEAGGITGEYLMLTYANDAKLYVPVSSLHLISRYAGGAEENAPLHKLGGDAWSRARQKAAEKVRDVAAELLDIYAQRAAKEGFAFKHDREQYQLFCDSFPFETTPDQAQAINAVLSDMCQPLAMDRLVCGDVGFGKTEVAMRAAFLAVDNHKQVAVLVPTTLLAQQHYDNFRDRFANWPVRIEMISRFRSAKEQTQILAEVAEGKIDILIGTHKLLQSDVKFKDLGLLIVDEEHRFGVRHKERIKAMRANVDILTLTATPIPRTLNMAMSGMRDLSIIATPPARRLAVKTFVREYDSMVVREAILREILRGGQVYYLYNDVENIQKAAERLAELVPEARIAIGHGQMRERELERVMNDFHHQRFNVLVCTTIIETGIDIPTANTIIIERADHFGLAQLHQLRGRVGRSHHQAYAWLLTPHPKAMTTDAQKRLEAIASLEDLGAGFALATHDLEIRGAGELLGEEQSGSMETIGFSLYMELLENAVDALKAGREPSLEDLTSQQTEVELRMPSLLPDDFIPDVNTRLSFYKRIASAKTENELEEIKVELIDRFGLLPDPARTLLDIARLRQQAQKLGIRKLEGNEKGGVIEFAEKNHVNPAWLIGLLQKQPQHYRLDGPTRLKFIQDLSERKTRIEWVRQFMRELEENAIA

## HEX-labeled 40mer dsDNA
Mfd wild type [1]; 2 mM ADP-AlFx
  Kd: 0.024 µM
Mfd wild type [1]; 2 mM ATPgS
  Kd: 0.151 µM
[2]
  Kd: 0.127 µM
[2]; 2 mM ATPgS
  Kd: 0.927 µM

B1: 21mer dsDNA (cryo-EM) (dsDNA)
DNA 1: ATAGGATACTTACAGCCATCG
DNA 2: CGATGGCTGTAAGTATCCTAT
Mfd wild type [3]
  binding result: binds
